One assay deals with T1, RIα D/D (a.a.#1-81) (Bos taurus, UniProt P00514).
T1 construct: made in house; host or cells: E. coli BL21(DE3); template pRSETB-RIα from Dr. Susan Taylor
The assay is described as follows: Ni-NTA pulldown with His-RIα D/D. It is filed as binding, bovine. The conditions noted are these: 300 mM NaCl buffers. The source says: (§1) Most AHs are mono-specific to RIIα D/D except a few that are either RIα D/D-specific (Angelo and Rubin, 1998; Means et al., 2011; Welch et al., 2010) or dual specific, binding to both (Huang et al., 1997; Jarnaess et al., 2008). To test if hAsh2 AH can cross-react with PKA's D/D, we created constructs expressing the D/D domain and the flanking sequences from bovine RIα (a.a.#1-81) and mouse RIIα (a.a.#1-64). His-RIα D/D or His-RIIα D/D was co-expressed with GST-RSP396-180, which contains the AH (RSP3160-178) that bind RII in the overlay assay (Gaillard et al., 2001). […] In the eluate, the ratio of RSP396-180-RIα D/D was the lowest, followed by RSP396-180-RIIα D/D and then RSP396-180-RIIα D/D from RSP7, the de facto partner of RSP3. Although RSP396-180 in the extract was also the most concentrated when co-expressed with RSP7's RIIα, this likely is due to effective binding of RSP7's D/D, protecting GST-RSP396-180 from proteolysis, which occurred when GST-RSP396-180 was expressed by itself (not shown). […]
Although both RIα D/D and Dpy-30 D/D have a common α0 helix (Wang et al., 2009), GST-hAsh2593-623 cross reacted with RIα D/D poorly. […] To test this, the samples from repeated experiments were analyzed in the non-reducing SDS-PAGE. […]

For a further assay, the target named is T2, RIIα D/D (a.a.#1-64) (Mus musculus, UniProt P12367, S2G).
T2 construct: made in house; host or cells: E. coli BL21(DE3); template pRSETB-RIIα from Dr. Susan Taylor
T2 sequence (P12367 1-64 S2G limits assumed): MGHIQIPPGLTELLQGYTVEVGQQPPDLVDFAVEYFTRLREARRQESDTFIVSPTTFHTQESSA
The assay is described as follows: Ni-NTA pulldown with His-RIIα D/D. Type of assay: binding. The conditions noted are these: 300 mM NaCl buffers.
From the text: as §1, with “shown). Similarly, when co-expressed with GST-hAsh2593-623, RIα D/D and RIIα D/D were depleted in the flow through but few polypeptides, especially RIIα D/D, were present in the eluate (FIG. 12A, right panel, compare Extract, Post and Elute).” for “shown).”

In assay [1] the target is T3, Dpy-30 (Homo sapiens, UniProt Q9C005). The assay is described as follows: Ni-NTA pulldown of GST-hAsh2 peptides with His-Dpy-30. It is filed as binding. On the set-up: Dpy-30 fragments, full length or a.a.#49-99, were amplified using purchased IMAGE cDNA clone #4081996 as a template; made in house; host or cells: E. coli BL21(DE3); key to co-purified with Dpy-30: “+” or “−” indicates if the peptides were or were not evidently co-purified with Dpy-30; “+” or “−” indicates if the peptides were or were not evidently co-purified with Dpy-30. The source says:
To test this, we performed pull down assays for His-Dpy-30 and GST-hAsh2593-623. The human Ash2 fragment contains a helix with two typical and three atypical ΦΦXX motifs. The hAsh2 DNA was fused downstream to GST DNA by PCR and the product was cloned into an expression vector. Three clones—#9 and #14 with the expected in-frame fusion and #6 with an out-of-frame fusion—were expressed in bacteria. Their extract was mixed with equal volume of bacterial extract with His-Dpy-30; and the mixture was subjected to Ni-NTA purification. […] Thus hAsh2593-623 interacts with Dpy-30 specifically.
Table 3 illustrates the protein sequences of hAsh2's C-terminal region (hAsh2593-623) and its variants, where “+” or “−” indicates if the peptides were or were not evidently co-purified with Dpy-30. The shorter fusion protein GST-hAsh2593-617 that terminated right after the last possible ΦΦXX-like motif, VETE (SEQ ID NO:35), in the helix was also co-purified with His-Dpy-30 (FIG. 11B, arrow and double arrowheads), no matter expressed separately or co-expressed. Both polypeptides were depleted in the flow through of Ni-NTA matrix (Post in FIG. 11B) and retained in the eluate.
All expression constructs were transformed or co-transformed into BL21(DE3) cells. The colonies were selected based on the antibiotic-resistant gene in each plasmid. The cultures were induced with 1 mM IPTG overnight at 18° C. The cell pellet from a 5-ml culture was resuspended in 750-μl lysis buffer supplemented with Complete Mini EDTA-free protease inhibitor cocktail tablets (Roche) and the suspension was sonicated on ice using Branson digital Sonifier until clarified (Emerson Industrial Automation). The sonicated mixtures were centrifuged at 4° C., 12,000 rpm for 25 min. The supernatant or combinations of supernatants as indicated were incubated with ˜100 μl Ni-NTA (Qiagen or Clontech) or Glutathione Sepharose 4B (Amersham Biosciences) for 1 hour at room temperature. The matrix was subsequently washed as instructed by manufacturers, unless indicated otherwise.
Bacterial extract, flow through and eluate in 1× Laemmli samples buffer were boiled for 5 min. In general, 10 μl samples were loaded in each lane in 4-20% precast acrylamide gels (Bio-Rad or DGEL Electrosystem, Canada) or 14% manually cast gels.

Assay [2] addresses T4, Dpy-30 domain only (Dpy-3045-99) (Homo sapiens, UniProt Q9C005).
T4 construct: made in house; host or cells: E. coli BL21(DE3), co-expressed with the GST-RSP3 peptides
Put plainly: Ni-NTA pulldown of GST-tagged RSP3 peptides with the Dpy-30 domain only. Type of assay: binding. Here is the method:
(§2) The experiments were further conducted on smaller segments within a.a.#269-316. GST-RSP3280-316 and GST-RSP3280-308, but not GST-RSP3280-306, were also pulled down by His-Dpy-30 (FIG. 7E, left panel). […] To ensure that the co-purification occurs through the Dpy-30 domain rather than its flanking sequence, the same experiment was conducted with the Dpy-30 domain only (Dpy-3045-99, Wang et al., 2009). The results from the experiments using Dpy-30 domain alone or full-length Dpy-30 protein were similar (FIG. 7E, right panel). Based on the similar dimensions of the RIIa and Dpy-30 domains (FIG. 1), we tested if the Dpy-30 binding peptide is centered on the 18-a.a. helix at the a.a.#291-308 by mutating V300 in the middle of the region into P, a strategy used to study AHR (Gaillard et al., 2001; Carr et al., 1992). […] RSP3291-308.
For Ni-NTA (Qiagen) affinity co-purification, GST-tagged RSP3 constructs and His-tagged HDpy-30 constructs were co-transformed into BL21(DE3) cells. The recombinant proteins were induced using 1 mM IPTG overnight at 16° C. Following induction, the cell pellet from a 5-ml culture was resuspended in 750 μl lysis buffer and sonicated using Branson digital Sonifier (Emerson Industrial Automation). The sonicated mixtures were centrifuged at 4° C., 12,000 rpm for 25 min. The supernatant was incubated with 100 μl Ni-NTA for 1 hour at room temperature. […]

For assay [3], the target named is T3, Dpy-30. Put plainly: Ni-NTA pulldown of GST-tagged RSP3 peptides with His-tagged human Dpy-30 protein. Type of assay: binding. More on the design: made in house; host or cells: E. coli BL21(DE3), co-expressed with the GST-RSP3 peptides. The conditions noted are these: full-length human His-Dpy-30 co-expressed with GST-RSP3 peptide.
From the text: (§3) Based on the phenotypes of RSP3 transgenic strains (FIG. 4), an in vitro approach was taken to test that RSP3269-316 contains a Dpy-30 domain binding site. RIIa-binding AHs are 14-18-a.a. long. Some of AHs are clearly comprised of ΦΦXX repeats in which the first two residues are hydrophobic residues (Φ) positioned to interact with complementary residues at the binding grooves of the RIIa domain (Burns-Hamuro et al., 2003; Kinderman et al., 2006; Sarma et al., 2010), whereas for the other RIIa-binding AHs the repeats are not as evident (Gold et al., 2006; Gaillard et al., 2001). Typical ΦΦXX repeats were noted within the Dpy-30 binding fragment in BIG1 at the trans-Golgi network but were not tested yet (Xia et al., 2010). For RSP3269-316, typical and degenerate ΦΦXX repeats are present throughout this region, thus the precise Dpy-30 binding site was determined objectively by Ni-NTA pulldown. As a control, the His-tagged RIIa domain from RSP7 was co-expressed with the GST-tagged RSP396-180 that harbors AHR at a.a.#161-178 (Gaillard et al., 2001; FIG. 3) and both polypeptides were co-purified by Ni-NTA (FIG. 7A). Various Dpy-30 domain containing RSP2 and RSP23 polypeptides were tested but were not compatible for this assay due to poor expression or precipitation propensity. Therefore we used the His-tagged human Dpy-30 protein for Ni-NTA pulldown instead. As expected, both GST-RSP3245-316 and GST-RSP3269-316 were co-purified with His-Dpy-30 by Ni-NTA (FIGS. 7B and 7C). In contrast, the GST control was not co-purified (FIG. 7D).
as §2
For Ni-NTA (Qiagen) affinity co-purification, GST-tagged RSP3 constructs and His-tagged HDpy-30 constructs were co-transformed into BL21(DE3) cells. The recombinant proteins were induced using 1 mM IPTG overnight at 16° C. Following induction, the cell pellet from a 5-ml culture was resuspended in 750 μl lysis buffer and sonicated using Branson digital Sonifier (Emerson Industrial Automation). The sonicated mixtures were centrifuged at 4° C., 12,000 rpm for 25 min. The supernatant was incubated with 100 μl Ni-NTA for 1 hour at room temperature. The matrix was subsequently washed thrice and elution was carried out as instructed by the manufacturer.

A further assay concerns RIIa domain from RSP7. Put plainly: Ni-NTA pulldown with His-tagged RIIa domain from RSP7. The conditions noted are these: co-expressed in bacteria. It is filed as binding, Chlamydomonas.
From the text: as §3
Based on the structural similarity, we tested for the cross-recognition of His-Dpy-30 and AHR (GST-RSP3g); and RSP7's RIIa and AHD (GST-RSP3280-308) by the described Ni-NTA pulldown assay. […] Thus Dpy-30 that has a deep pocket from an additional α-helix recognizes both AHR and AHD, whereas RSP7's RIIa, as PKA's RII, only binds RSP3's AHR(Gaillard et al., 2001). […]

No end group written: not given here.

T3 sequence (Q9C005 whole entry, the tested form may be a part): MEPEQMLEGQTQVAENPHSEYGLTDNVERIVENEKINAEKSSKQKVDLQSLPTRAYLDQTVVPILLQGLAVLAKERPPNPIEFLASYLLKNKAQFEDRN
T1 sequence (P00514 1-81): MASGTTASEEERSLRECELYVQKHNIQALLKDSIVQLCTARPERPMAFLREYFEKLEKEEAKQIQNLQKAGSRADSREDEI
T4 sequence (Q9C005 45-99): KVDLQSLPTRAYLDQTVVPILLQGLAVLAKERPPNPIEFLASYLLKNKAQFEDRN

For “PMSDMGWGAVVKHTLADVLYHVETEVDGRRS (also: GST fusion) [E604K, GST-hAsh2593-623 with E604 mutated to K]”, the “co-purification with His-RIα D/D” value in the assay with RIα D/D (a.a.#1-81) was “not”. Besides, the “co-purification with His-RIIα D/D” value with RIIα D/D (a.a.#1-64) was “substantially enhanced the pulldown”. Besides, the “co-purified with Dpy-30” value in the assay with Dpy-30 [1] (GST-fused hAsh2 peptides, Ni-NTA pulldown, Coomassie-stained SDS-PAGE) is “+”. The “co-purification with His-Dpy-30” value with Dpy-30 [1] (full-length His-Dpy-30, Ni-NTA, result in words) is “still pulled down substantially”.
For the molecule “V300P: GST-tagged RSP3280-316 with V300 mutated into P (PWLKEQAIGYLARGVVARRVPDKLVEDAAAALAANRS; also: GST tag)”, the “binding to the Dpy-30 domain” value in assay [2] is reported as “abrogated the binding”. For the same molecule, the “co-purification / pulldown with His-Dpy-30” value in the assay with Dpy-30 [3] was “abrogated the binding”.

B1: RSP396-180: GST-tagged RSP3 fragment a.a. 96-180 that harbors the RIIa-binding AHR at a.a.#161-178 (protein)
chain: HIDIQTDVYLEELTDTVPEADTSTQTDAFLDRPPTPLFVPQKTGTDAITQIENGDLFDFDFEVEPILEVLVGKVLEQGLMEVLEE
modifications: left off: a dimerising Fc or GST
Take B1: the “co-purification / pulldown with His-RIIa from RSP7” value in the assay on RIIa domain from RSP7 was “co-purified”; in the assay with RIIa domain from RSP7 (listed as GST-RSP390-180), “most efficient”. The “co-purification with His-RIα D/D” value with RIα D/D (a.a.#1-81) is reported as “the lowest”. Further, the “co-purification / pulldown with His-Dpy-30” value with Dpy-30 [3] is given as “pulled down”.

The record behind these values is patent US9856300B2, “Dpy-30 binding peptides and methods of use” (Marquette University, priority 2011, dated 2018).
